What is called EC50 (read off the curve) is the concentration giving half of the maximal effect. Low readings indicate greater potency, high ones weaker potency.

Experiment [1] concerns the target T1, wild-type calreticulin (CALRwt) expressed with MPL in engineered cancer cells (UniProt P27797 18-417, limits assumed).
T1 construct: whole, on cells; also called OCI-M2 MPL CALRwt
T1 sequence (looked up): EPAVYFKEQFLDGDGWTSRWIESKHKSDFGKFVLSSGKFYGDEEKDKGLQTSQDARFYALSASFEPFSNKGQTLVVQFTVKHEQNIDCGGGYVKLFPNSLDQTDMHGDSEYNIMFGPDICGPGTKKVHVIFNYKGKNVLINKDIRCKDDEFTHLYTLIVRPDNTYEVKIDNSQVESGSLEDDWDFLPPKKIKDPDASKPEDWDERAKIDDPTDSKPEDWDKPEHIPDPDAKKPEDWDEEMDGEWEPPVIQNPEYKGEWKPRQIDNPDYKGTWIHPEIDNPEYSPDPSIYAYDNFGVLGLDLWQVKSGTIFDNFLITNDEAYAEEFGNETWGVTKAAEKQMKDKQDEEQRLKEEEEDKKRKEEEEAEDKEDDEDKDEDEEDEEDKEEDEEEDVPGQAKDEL
As to the kind of experiment: flow cytometry on OCI-M2 MPL CALRwt cells, 1 h at 37 C, AF647 secondary antibody, Geometric mean. As to the method: (§1) FIGS. 27A-27F depict binding of different CALRmutxCD3 antibodies to CALRmut-negative or CALRmut-positive cells. Flow cytometry was used to evaluate CALRmutxCD3 binding to CALRmut-negative and CALRmut-positive cancer cells in vitro. CALRmutxCD3 antibodies were tested on a panel of cell lines, engineered to express MPL and CALRmut, after 1 hour 37° C. incubation, with subsequent incubation with secondary AF647-labeled antibody. Geometric mean fluorescence intensity of AF647 was measured to determine antibody binding.

Experiment [2] concerns the target T2, CALRins5 (mutant calreticulin, 5 base pair insertion, Type 2) expressed with MPL on engineered cancer cells (UniProt P27797 18-417).
T2 construct: whole, on cells; On the cell surface in complex with MPL; also called OCI-M2 MPL CALRins5
T2 sequence (looked up): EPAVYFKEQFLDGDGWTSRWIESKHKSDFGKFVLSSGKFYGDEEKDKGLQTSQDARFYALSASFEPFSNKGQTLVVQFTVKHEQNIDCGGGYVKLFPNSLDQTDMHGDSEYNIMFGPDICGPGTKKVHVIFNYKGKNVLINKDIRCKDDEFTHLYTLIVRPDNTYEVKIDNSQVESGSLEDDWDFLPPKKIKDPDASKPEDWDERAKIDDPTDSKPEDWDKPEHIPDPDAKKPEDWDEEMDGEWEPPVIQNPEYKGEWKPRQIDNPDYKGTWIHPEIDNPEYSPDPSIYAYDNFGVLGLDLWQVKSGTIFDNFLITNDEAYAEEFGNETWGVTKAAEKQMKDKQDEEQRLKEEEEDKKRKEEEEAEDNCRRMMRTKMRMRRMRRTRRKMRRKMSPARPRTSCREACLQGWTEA
The experiment can be described thus: flow cytometry on OCI-M2 MPL CALRins5 cells, 1 h at 37 C, AF647 secondary antibody, Geometric mean. The method, then:
as §1

Experiment [3] addresses T2, CALRins5 (mutant calreticulin, 5 base …). As to the kind of experiment: flow cytometry on ELF-153 MPL CALRins5 cells, 1 h at 37 C, AF647 secondary antibody, Geometric mean. The method, then: as §1

B1: C3CRB133 CALRmut x CD3 bispecific antibody (bispecific antibody, human IgG1, kappa, L234A L235A)
scFv: DIQMTQSPSSLSASVGDRVTITCRARQSIGTAIHWYQQKPGCAPKLLIKYASESISGVPSRFSGSGSGTDFTLTISSLQPEDFATYYCQQSGSWPYTFGQGTKLEIKGGGSGGSGGCPPCGGSGGEVQLVESGGGLVKPGGSLRLSCAASGFTFSRYNMNWVRQAPGKGLEWVSSISTSSNYIYYADSVKGRFTFSRDNAKNSLDLQMSGLRAEDTAIYYCTRGWGPFDYWGCGTLVTVSSEPKSSDKTHTCPPCPAPEAAGGPSVFLFPPKPKDTLMISRTPEVTCVVVSVSHEDPEVKFNWYVDGVEVHNAKTKPREEQYNSTYRVVSVLTVLHQDWLNGKEYKCKVSNKALPAPIEKTISKAKGQPREPQVYTLPPSREEMTKNQVSLWCLVKGFYPSDIAVEWESNGQPENNYKTTPPVLDSDGSFFLYSKLTVDKSRWQQGNVFSCSVMHEALHNHYTQKSLSLSPGK
heavy: DIQMTQSPSTLSASVGDRVTITCQASQSLYNNKNLAWYQQKPGCAPKLLIYYASALASGVPSRFSGSGSGTEFTLTISSLQPDDFATYYCQGEFNCNSADCNSFGGGTKVEIKGGGSGGSGGCPPCGGSGGQVQLVQSGAEVKKPGASVKVSCKASGFSLSSYAMSWVRQAPGQGLEWMGVIDSGGTTYYAQKFQGRVTMTRDTSTSTVYMELSSLRSEDTAVYYCARESYAGYDYYGHPIPYGMEPWGCGTLVTVSSGGGGSGGGGSEVQLLESGGGLVQPGGSLRLSCAVSGIDLSNNAISWVRQAPGKGLEYVGVIGNTGDTYYADSAKGRFTISRDSSKTTLYLQMNSLRAEDTAVYFCVRGPPSYSSSVKNIWGQGTLVTVSSASTKGPSVFPLAPSSKSTSGGTAALGCLVKDYFPEPVTVSWNSGALTSGVHTFPAVLQSSGLYSLSSVVTVPSSSLGTQTYICNVNHKPSNTKVDKKVEPKSCDKTHTCPPCPAPEAAGGPSVFLFPPKPKDTLMISRTPEVTCVVVSVSHEDPEVKFNWYVDGVEVHNAKTKPREEQYNSTYRVVSVLTVLHQDWLNGKEYKCKVSNKALPAPIEKTISKAKGQPREPQVYTLPPSREEMTKNQVSLSCAVKGFYPSDIAVEWESNGQPENNYKTTPPVLDSDGSFFLVSKLTVDKSRWQQGNVFSCSVMHEALHNRFTQKSLSLSPGK
light: DIQMTQSPSSVSASVGDRVTITCQSSQSVYNNNWLSWLQQKPGKAPKRLIYDASKLESGVPSRFSGSGSGTDFTLTISSVQPEDAATYYCAGGFTGNVYTFGGGTKVEIKRTVAAPSVFIFPPSDEQLKSGTASVVCLLNNFYPREAKVQWKVDNALQSGNSQESVTEQDSKDSTYSLSSTLTLSKADYEKHKVYACEVTHQGLSSPVTKSFNRGEC
notes: Chain B heavy: CALRB1114 spFv N-terminal of the CALRB421 heavy chain
As to B1, in experiment [1], the binding result is recorded as “no binding (tested: 100 nM)”. The 50% effective concentration (EC50 (read off the curve)) is roughly 5 nM in experiment [2] and roughly 1 nM in experiment [3].

B2: C3CRB134 CALRmut x CD3 bispecific antibody (bispecific antibody)
scFv: B1 scFv
heavy: EVQLLESGGGLVQPGGSLRLSCAVSGIDLSNNAISWVRQAPGKGLEYVGVIGNTGDTYYADSAKGRFTISRDSSKTTLYLQMNSLRAEDTAVYFCVRGPPSYSSSVKNIWGQGTLVTVSSASTKGPSVFPLAPSSKSTSGGTAALGCLVKDYFPEPVTVSWNSGALTSGVHTFPAVLQSSGLYSLSSVVTVPSSSLGTQTYICNVNHKPSNTKVDKKVEPKSCGGGGSGGGGSDIQMTQSPSTLSASVGDRVTITCQASQSLYNNKNLAWYQQKPGCAPKLLIYYASALASGVPSRFSGSGSGTEFTLTISSLQPDDFATYYCQGEFNCNSADCNSFGGGTKVEIKGGGSGGSGGCPPCGGSGGQVQLVQSGAEVKKPGASVKVSCKASGFSLSSYAMSWVRQAPGQGLEWMGVIDSGGTTYYAQKFQGRVTMTRDTSTSTVYMELSSLRSEDTAVYYCARESYAGYDYYGHPIPYGMEPWGCGTLVTVSSEPKSSDKTHTCPPCPAPEAAGGPSVFLFPPKPKDTLMISRTPEVTCVVVSVSHEDPEVKFNWYVDGVEVHNAKTKPREEQYNSTYRVVSVLTVLHQDWLNGKEYKCKVSNKALPAPIEKTISKAKGQPREPQVYTLPPSREEMTKNQVSLSCAVKGFYPSDIAVEWESNGQPENNYKTTPPVLDSDGSFFLVSKLTVDKSRWQQGNVFSCSVMHEALHNRFTQKSLSLSPGK
light: B1 light
notes: Chain B heavy: CALRB421 Fab heavy part, CALRB1114 spFv, Fc
On to B2, for which the binding result in experiment [1] is recorded as “no binding (tested: 100 nM)”. For the same molecule, the “EC50 (read off the curve)” value in experiment [2] was roughly 3 nM; in experiment [3], roughly 1 nM.

B3: C3CRB137 CALRmut x CD3 bispecific antibody (bispecific antibody, human IgG1, kappa, L234A L235A)
scFv: B1 scFv
heavy: EVQLLESGGGLVQPGGSLRLSCAVSGIDLSNNAISWVRQAPGKGLEYVGVIGNTGDTYYADSAKGRFTISRDSSKTTLYLQMNSLRAEDTAVYFCVRGPPSYSSSVKNIWGQGTLVTVSSASTKGPSVFPLAPSSKSTSGGTAALGCLVKDYFPEPVTVSWNSGALTSGVHTFPAVLQSSGLYSLSSVVTVPSSSLGTQTYICNVNHKPSNTKVDKKVEPKSCGGGGSGGGGSEVQLLESGGGLVQPGGSLRLSCAVSGIDLSNNAISWVRQAPGKGLEYVGVIGNTGDTYYADSAKGRFTISRDSSKTTLYLQMNSLRAEDTAVYFCVRGPPSYSSSVKNIWGQGTLVTVSSASTKGPSVFPLAPSSKSTSGGTAALGCLVKDYFPEPVTVSWNSGALTSGVHTFPAVLQSSGLYSLSSVVTVPSSSLGTQTYICNVNHKPSNTKVDKKVEPKSCDKTHTCPPCPAPEAAGGPSVFLFPPKPKDTLMISRTPEVTCVVVSVSHEDPEVKFNWYVDGVEVHNAKTKPREEQYNSTYRVVSVLTVLHQDWLNGKEYKCKVSNKALPAPIEKTISKAKGQPREPQVYTLPPSREEMTKNQVSLSCAVKGFYPSDIAVEWESNGQPENNYKTTPPVLDSDGSFFLVSKLTVDKSRWQQGNVFSCSVMHEALHNRFTQKSLSLSPGK
light: B1 light
notes: Chain B heavy: two CALRB421 Fab heavy parts in tandem, Fc
For the molecule B3, the binding result in experiment [1] is listed as “no binding (tested: 100 nM)”. Moreover, the concentration for a half-maximal effect (EC50 (read off the curve)) in experiment [3] is roughly 1 nM.

B4: C3CRB135 CALRmut x CD3 bispecific antibody (bispecific antibody, human IgG1, kappa, L234A L235A)
heavy: EVQLLESGGGLVQPGGSLRLSCAVSGIDLSNNAISWVRQAPGKGLEYVGVIGNTGDTYYADSAKGRFTISRDSSKTTLYLQMNSLRAEDTAVYFCVRGPPSYSSSVKNIWGQGTLVTVSSASTKGPSVFPLAPSSKSTSGGTAALGCLVKDYFPEPVTVSWNSGALTSGVHTFPAVLQSSGLYSLSSVVTVPSSSLGTQTYICNVNHKPSNTKVDKKVEPKSCDKTHTCPPCPAPEAAGGPSVFLFPPKPKDTLMISRTPEVTCVVVSVSHEDPEVKFNWYVDGVEVHNAKTKPREEQYNSTYRVVSVLTVLHQDWLNGKEYKCKVSNKALPAPIEKTISKAKGQPREPQVYTLPPSREEMTKNQVSLSCAVKGFYPSDIAVEWESNGQPENNYKTTPPVLDSDGSFFLVSKLTVDKSRWQQGNVFSCSVMHEALHNRFTQKSLSLSPGKGGGGSGGGGSDIQMTQSPSTLSASVGDRVTITCQASQSLYNNKNLAWYQQKPGCAPKLLIYYASALASGVPSRFSGSGSGTEFTLTISSLQPDDFATYYCQGEFNCNSADCNSFGGGTKVEIKGGGSGGSGGCPPCGGSGGQVQLVQSGAEVKKPGASVKVSCKASGFSLSSYAMSWVRQAPGQGLEWMGVIDSGGTTYYAQKFQGRVTMTRDTSTSTVYMELSSLRSEDTAVYYCARESYAGYDYYGHPIPYGMEPWGCGTLVTVSSH
light: B1 light
scFv: B1 scFv
notes: Chain A heavy: CALRB421 heavy chain with CALRB1114 spFv at the C-terminus
For the molecule B4, the binding result in experiment [1] was “no binding (tested: 100 nM)”. Further, the results for the “EC50 (read off the curve)” value in experiment [2] and in experiment [3] were roughly 3 nM and roughly 1 nM, respectively.

For the origin of these results see patent US20260125457A1 (Janssen / Centocor, published 2026).
